# Results from patent publication US20220089710A1, “Method of Treating Signs and Symptoms of Osteoarthritis” (Pfizer Inc., priority 2019, published 2022).
# Experiments:
# [1] = tested on: patients with OA of the knee or hip; assay: Example 2: randomized, double-blind, placebo-controlled study (24-week treatment; SC tanezumab at baseline, week 8, week 16), efficacy; format: in vivo, human; settings: for WOMAC Pain subscale Change from Baseline: LS Mean / WOMAC Pain subscale Change from Baseline: LS Mean Difference vs. placebo: Week 2; for PGA-OA: LS Mean (SE) change from Baseline / PGA-OA: LS Mean Difference vs. placebo (SE) / WOMAC Pain: LS Mean Difference vs. placebo (SE) / WOMAC Physical Function: LS Mean (SE) change from Baseline / WOMAC Physical Function: LS Mean Difference vs. placebo (SE) / WOMAC Pain: LS Mean (SE) change from Baseline / % of subjects with ≥50% reduction in the WOMAC Pain subscale / Number of subjects with ≥50% reduction in the WOMAC Pain subscale / WOMAC Pain: LS mean difference±SE versus placebo: Week 24; for WOMAC Pain: LS Mean (SE) change from Baseline: ITT, multiple imputation; for % of subjects with ≥50% reduction in the WOMAC Pain subscale / Number of subjects with ≥50% reduction in the WOMAC Pain subscale: mixed BOCF and LOCF
# Excerpt: Key inclusion criteria were Western Ontario and McMaster Universities Osteoarthritis Index (WOMAC) Pain and Physical Function scores in the index joint; a Patient Global Assessment of OA (PGA-OA) score of fair, poor, or very poor; a history of insufficient pain relief or intolerance to acetaminophen, oral NSAID, and either tramadol or opioids (or unwilling to take opioids). […] Co-primary endpoints were change from baseline in WOMAC Pain, WOMAC Physical Function, and PGA-OA scores at week 24 compared with placebo. Three key secondary endpoints were: reduction in the WOMAC Pain subscale of 50%, at Week 24, WOMAC Pain subscale change from Baseline to Week 2, and weekly average pain score (based on daily diary) in the index joint change from Baseline to Week 1. Safety, including adjudication of joint safety events, was assessed.
# [2] = tested on: patients with osteoarthritis (OA) of the knee or hip; assay: Example 3: treatment-emergent adverse events and deaths, Safety Population; settings: 2.5 mg SC;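 note: seven SC injections given 8 weeks apart plus twice-daily oral study medication up to Week 56, Safety Population of all patients dosed at least once SC, analyzed by treatment actually received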
# Description: Patients received a total of seven SC injections, each separated by 8 weeks and daily oral (PO) study medication BID through Week 56.
# The Intent-to-Treat (ITT) Population included all patients who were randomized and received at least one dose of SC study drug. This analysis set was primary for all efficacy endpoints, which were analyzed according to randomization assignment. The Safety Population included all patients who received at least one dose of SC study treatment. This analysis set was primary for all safety endpoints, which were analyzed according to treatment received.
substance,measurement,setting,value
tanezumab: humanized immunoglobulin G Type 2 (IgG2) monoclonal antibody directed against human nerve growth factor (NGF); SEQ ID NOs: 9 or 11 and 10,WOMAC Pain subscale Change from Baseline: LS Mean,[1]; 2.5 mg SC,−2.02
same,WOMAC Pain subscale Change from Baseline: LS Mean Difference vs. placebo,[1]; 2.5 mg SC,−0.67
same,PGA-OA: LS Mean (SE) change from Baseline,[1]; 2.5 mg SC,−0.82 (0.06)
same,PGA-OA: LS Mean Difference vs. placebo (SE),[1]; 2.5 mg SC,−0.11 (0.07)
same,WOMAC Pain: LS Mean Difference vs. placebo (SE),[1]; 2.5 mg SC,−0.46 (0.18)
same,WOMAC Physical Function: LS Mean (SE) change from Baseline,[1]; 2.5 mg SC,−2.70 (0.17)
same,WOMAC Physical Function: LS Mean Difference vs. placebo (SE),[1]; 2.5 mg SC,−0.59 (0.18)
same,WOMAC Pain: LS Mean (SE) change from Baseline,[1]; 2.5 mg SC,−2.70 (0.17)
same,% of subjects with ≥50% reduction in the WOMAC Pain subscale,[1]; 2.5 mg SC,(45.4%)
same,Number of subjects with ≥50% reduction in the WOMAC Pain subscale,[1]; 2.5 mg SC,128
same,WOMAC Pain: LS mean difference±SE versus placebo,"[1]; 2.5 mg, index joint KL2/3",−0.19±0.23
same,WOMAC Pain: LS mean difference±SE versus placebo,"[1]; 2.5 mg, index joint KL4",−0.84±0.28
same,WOMAC Pain subscale Change from Baseline: LS Mean,[1]; 5 mg SC,−1.69
same,WOMAC Pain subscale Change from Baseline: LS Mean Difference vs. placebo,[1]; 5 mg SC,−0.34
same,PGA-OA: LS Mean (SE) change from Baseline,[1]; 5 mg SC,−0.90 (0.06)
same,PGA-OA: LS Mean Difference vs. placebo (SE),[1]; 5 mg SC,−0.19 (0.07)
same,WOMAC Pain: LS Mean Difference vs. placebo (SE),[1]; 5 mg SC,−0.62 (0.18)
same,WOMAC Physical Function: LS Mean (SE) change from Baseline,[1]; 5 mg SC,−2.82 (0.17)
same,WOMAC Physical Function: LS Mean Difference vs. placebo (SE),[1]; 5 mg SC,−0.71 (0.17)
same,WOMAC Pain: LS Mean (SE) change from Baseline,[1]; 5 mg SC,−2.85 (0.17)
same,% of subjects with ≥50% reduction in the WOMAC Pain subscale,[1]; 5 mg SC,(47.9%)
same,Number of subjects with ≥50% reduction in the WOMAC Pain subscale,[1]; 5 mg SC,136
same,WOMAC Pain: LS mean difference±SE versus placebo,"[1]; 5 mg, index joint KL2/3",−0.32±0.23
same,WOMAC Pain: LS mean difference±SE versus placebo,"[1]; 5 mg, index joint KL4",−0.98±0.28
same,deaths: patients,[2]; during the safety follow-up period,2
same,deaths: patients,[2]; during the treatment period,2
same,Adverse Event: % of patients,[2]; treatment period,62.8%
same,Adverse Event: number of patients,[2]; treatment period,629
same,Arthralgia: % of patients,[2]; treatment period,13.3%
same,Arthralgia: number of patients,[2]; treatment period,133
same,Back pain: % of patients,[2]; treatment period,3.4%
same,Back pain: number of patients,[2]; treatment period,34
same,Discontinued from study (adverse event): % of patients,[2]; treatment period,2.3%
same,Discontinued from study (adverse event): number of patients,[2]; treatment period,23
same,Discontinued study drug and continued study (adverse event): % of patients,[2]; treatment period,5.3%
same,Discontinued study drug and continued study (adverse event): number of patients,[2]; treatment period,53
same,Fall: % of patients,[2]; treatment period,6.5%
same,Fall: number of patients,[2]; treatment period,65
same,Headache: % of patients,[2]; treatment period,5.6%
same,Headache: number of patients,[2]; treatment period,56
same,Joint swelling: % of patients,[2]; treatment period,4.3%
same,Joint swelling: number of patients,[2]; treatment period,43
same,Musculoskeletal pain: % of patients,[2]; treatment period,4.3%
same,Musculoskeletal pain: number of patients,[2]; treatment period,43
same,Nasopharyngitis: % of patients,[2]; treatment period,5.7%
same,Nasopharyngitis: number of patients,[2]; treatment period,57
same,Osteoarthritis: % of patients,[2]; treatment period,3.9%
same,Osteoarthritis: number of patients,[2]; treatment period,39
same,Pain in extremity: % of patients,[2]; treatment period,3.1%
same,Pain in extremity: number of patients,[2]; treatment period,31
same,Paraesthesia: % of patients,[2]; treatment period,1.8%
same,Paraesthesia: number of patients,[2]; treatment period,18
same,Peripheral edema: % of patients,[2]; treatment period,1.9%
same,Peripheral edema: number of patients,[2]; treatment period,19
same,Rapidly progressive osteoarthritis (adverse event): % of patients,[2]; treatment period,1.8%
same,Rapidly progressive osteoarthritis (adverse event): number of patients,[2]; treatment period,18
same,Serious AE Acute kidney injury: n,[2]; treatment period,0
same,Serious AE Acute myocardial infarction: %,[2]; treatment period,1.0%
same,Serious AE Acute myocardial infarction: n,[2]; treatment period,1
same,Serious AE Arthralgia: %,[2]; treatment period,0.4%
same,Serious AE Arthralgia: n,[2]; treatment period,4
same,Serious AE Cellulitis: n,[2]; treatment period,0
same,Serious AE Cerebrovascular accident: %,[2]; treatment period,0.2%
same,Serious AE Cerebrovascular accident: n,[2]; treatment period,2
same,Serious AE Gastrointestinal hemorrhage: n,[2]; treatment period,0
same,Serious AE Intervetebral disc protrusion: n,[2]; treatment period,0
same,Serious AE Meniscus injury: %,[2]; treatment period,0.1%
same,Serious AE Meniscus injury: n,[2]; treatment period,1
same,Serious AE Osteoarthritis: %,[2]; treatment period,0.9%
same,Serious AE Osteoarthritis: n,[2]; treatment period,9
same,Serious AE Osteonecrosis: n,[2]; treatment period,0
same,Serious AE Pneumonia: %,[2]; treatment period,0.1%
